Results from article PMC6962361.

Target: Fpr C151Stop (Fowlpox virus) (UniProt A0A385H9X4)
Test: fluorescence polarization
Conditions: FP: 25 mM Tris-HCl pH 7.4, 100 mM NaCl, 5 mM EDTA, 1% glycerol, 10 nM DNA, 37 C 20 min, protein as dimer; NMR: 25 mM L-Arg, 25 mM L-Glu, 303 K

Which Kd does the source give for “CGGAGGCCTAGCGTCCGGAATTCTCGTTTCGAGAATTCCGGATTAGGGATCCGCG / CGCGGATCCCTAAGCTCCATCGATCGTTTCGATCGATGGAGCCGCTAGGCCTCCG [F13/13HJ (FHJ13/13)]” here?
Its Kd is 0.168 µM.
